Test results reported in US5616562A, “Methods and compositions using substance P to promote wound healing” (priority 1994, dated 1997).
Where a SMILES comes first, the peptide text is derived from it. [ ]: non-standard residue; d: D form.

Tests used:
[1] = test system: persistent non-septic corneal epithelial defects; assay: Open-label clinical trial of topical SP in canine patients with chronic non-septic corneal epithelial defects; assay type: in vivo, dog; settings: 500 μ/ml SP topical, 8 times daily
From the text: This was a non-controlled open-label clinical trial conducted on canine patients seen in a specialty referral service for chronic, non-septic corneal epithelial defects. Criteria for inclusion included:
1. Absence of an identifiable underlying cause of the epithelial defect (lid abnormalities, decreased tear production etc.) on complete ophthalmic examination.
2. Persistence of the defect for at least 3 weeks.
3. Unresponsive to traditional therapy (topical broad spectrum antibiotics,some cases had received topical hyper-osmotic therapy, and 5 dogs had not healed after placement of a therapeutic soft contact bandage lens).
After obtaining informed consent from the owners, the dogs were taken into the hospital, an Elizabethan collar was placed (to keep the dog from rubbing its eye) and two drops of 500 μ/ml SP were instilled into the affected eye. The dogs were closely observed for any irritant effect of the drops. The dogs were then treated with one drop 8 times daily for duration of the trial.

[2] = test system: corneal epithelium; assay: Corneal re-epithelialization after debridement in rabbits given systemic capsaicin; assay type: in vivo, rabbit
Procedure: In order to investigate the effect of SP treatment on corneal epithelial cell growth, capsaicin (50 mg/kg) was injected subcutaneously into young rabbits on five consecutive days in order to deplete, lower, or block the release of SP in their corneas. Lidocain was injected subcutaneously into the injection site 10 minutes prior to the capsaicin injection. Three weeks after the last injection, the rabbits were anesthetized (ketamine/rompun), topical anesthetic applied to the cornea and the corneal epithelium of both eyes debrided to the limbal margin of clear cornea. The corneas were stained 2× daily with fluorescein and photographed using a cobalt filter to monitor re-epithelialization. Resultant photographs were projected onto a digitizing board and the surface area of ulceration determined. […] Clinically, the capsaicin treated rabbits differed from the control rabbits only in their impaired ability to re-epithelialize the denuded stroma.

[3] = test system: corneal epithelium; assay: Morphological examination of adherence of regenerated corneal epithelium; assay type: in vivo, rabbit; settings: after healing of the cornea; masked specimens; systemic capsaicin, or topical enkephalinase in normal rabbits
From the text: For both capsaicin-treated rabbits and those treated with topical enkephalinase, regenerated epithelial layers could be easily rubbed off as a sheet of cells after healing of the cornea. This was not found in the control rabbits. Specimens from the various treatment groups were masked and morphologically examined to determine the nature of epithelial adherence. […] Thus, it appears that SP and other neuropeptides contribute to the attachment of epithelial cells during wound healing. Such contribution may take the form of elaboration of extracellular matrices (e.g., fibronectin) as well as development of cellular attachment mechanism, which activity would be in addition to their mitogenic activity in promoting cellular proliferation.

[4] = test system: epithelial cells; assay: SP analogs and fragment: stimulation of DNA synthesis / cell growth; assay type: cell-based
Procedure: Several SP analogs were also tested for their ability to stimulate DNA synthesis. An SP analog where norleucine is substituted for methionine at the C-terminus was tested (Nle-SP). Norleucine is a structural analog of methionine where the sulfur is replaced with a CH2 group.

[5] = test system: epithelial cells; assay: Effect of enkephalinase on the ability of SP and insulin to stimulate DNA synthesis; assay type: cell-based
Procedure: Substance P (SP) was tested for its ability to stimulate cell growth in epithelial cells from both cornea and lens that were arrested in the G1 /Go phase of the cell cycle in serum free media. […] See, FIG. 1 for corneal and FIG. 2 for lens epithelial cells. To test whether this effect was due to SP, 1 μg/ml of enkephalinase (an enzyme that cleaves SP between amino acid residues 6-7, 7-8, and 9-10) was added.
In the previous experiment, the enkephalinase was added to the cells at the same time as the SP.

[6] = test system: corneal epithelium; assay: Corneal re-epithelialization after debridement in non-capsaicin rabbits treated with topical enkephalinase; assay type: in vivo, rabbit
Procedure: To evaluate the effect of SP depletion using another model, the corneal epithelium was removed from non-capsaicin treated rabbits as described above. Enkephalinase (which breaks down SP) was administered 4× daily to one eye of each bilaterally wounded rabbit. The fellow eye received vehicle only 4× daily. […] FIG. 4 underestimates the time course of epithelial healing of both capsaicin treated rabbits and enkephalinase treated corneas for many of these corneas had not re-epithelialized at the termination of the experiments. In 12 rabbits, the enkephalinase treated eye always took longer to heal. In FIG. 5, typical plots for one rabbit (the other 11 rabbits gave essentially the same results) of wound area with time are presented. The solid line represents the enkephalinase-treated eye while the broken line represents the control without enkephalinase. In each case the enkephalinase treated eye and the vehicle treated eye appeared to heal at the same rate for the first 80 to 90 hours. […] The initial healing rate was probably due to migration of pre-existing cells onto the peripheral wound. After 80 to 90 hours synthesis of new cells is required in order to completely cover the wound. […]

Question: With `CSCC[C@H](NC(=O)[C@H](CC(C)C)NC(=O)CNC(=O)[C@H](Cc1ccccc1)NC(=O)[C@H](Cc1ccccc1)NC(=O)[C@H](CCC(N)=O)NC(=O)[C@H](CCC(N)=O)NC(=O)[C@@H]1CCCN1C(=O)[C@H](CCCCN)NC(=O)[C@@H]1CCCN1C(=O)[C@@H](N)CCCN=C(N)N)C(N)=O` [SP, Substance P] as the molecule, how does the complications [1] read?
Answer: No complications were observed

Question: Which results are given for `COc1cc(CNC(=O)CCCC/C=C/C(C)C)ccc1O` [capsaicin]?
Answer: time to re-epithelialize the denuded cornea ([2]; capsaicin 50 mg/kg subcutaneously on five consecutive days, wounding three weeks later, vs 160 hours in non-capsaicin rabbits (FIG. 4)): 460 h; clinical evidence of impaired lacrimation or other secondary phenomenon ([2]; capsaicin treated rabbits): No clinical evidence; adherence of regenerated corneal epithelium [3]: poorly adhered

Question: How did the “promotion of cellular growth” value [4] turn out when `CC(C)C[C@H](NC(=O)[C@H](CC(C)C)NC(=O)[C@@H](Cc1c[nH]c2ccccc12)NC(=O)[C@H](Cc1ccccc1)NC(=O)[C@@H](Cc1c[nH]c2ccccc12)NC(=O)[C@H](CCC(N)=O)NC(=O)[C@H](CCC(N)=O)NC(=O)[C@@H]1CCCN1C(=O)[C@H](CCCCN)NC(=O)[C@@H]1CCCN1C(=O)[C@H](N)CCCNC(=N)N)C(N)=O` [spantide] (H-[dR]PKPQQ[dW]F[dW]LL-NH2) was run?
Answer: stimulate epithelial cell growth

Question: For “fragment of substance P including only amino acids 5-11: fragment of substance P including only amino acids 5-11 (GlnPhePheGlyLeuMet)”, which “promotion of cellular growth” value [4] is on record?
Answer: active

B1: enkephalinase: an enzyme that cleaves SP between amino acid residues 6-7, 7-8, and 9-10 (protein, UniProt P08473 2-750, looked up)
Neprilysin: GKSESQMDITDINTPKPKKKQRWTPLEISLSVLVLLLTIIAVTMIALYATYDDGICKSSDCIKSAARLIQNMDATTEPCTDFFKYACGGWLKRNVIPETSSRYGNFDILRDELEVVLKDVLQEPKTEDIVAVQKAKALYRSCINESAIDSRGGEPLLKLLPDIYGWPVATENWEQKYGASWTAEKAIAQLNSKYGKKVLINLFVGTDDKNSVNHVIHIDQPRLGLPSRDYYECTGIYKEACTAYVDFMISVARLIRQEERLPIDENQLALEMNKVMELEKEIANATAKPEDRNDPMLLYNKMTLAQIQNNFSLEINGKPFSWLNFTNEIMSTVNISITNEEDVVVYAPEYLTKLKPILTKYSARDLQNLMSWRFIMDLVSSLSRTYKESRNAFRKALYGTTSETATWRRCANYVNGNMENAVGRLYVEAAFAGESKHVVEDLIAQIREVFIQTLDDLTWMDAETKKRAEEKALAIKERIGYPDDIVSNDNKLNNEYLELNYKEDEYFENIIQNLKFSQSKQLKKLREKVDKDEWISGAAVVNAFYSSGRNQIVFPAGILQPPFFSAQQSNSLNYGGIGMVIGHEITHGFDDNGRNFNKDGDLVDWWTQQSASNFKEQSQCMVYQYGNFSWDLAGGQHLNGINTLGENIADNGGLGQAYRAYQNYIKKNGEEKLLPGLDLNHKQLFFLNFAQVWCGTYRPEYAVNSIKTDVHSPGNFRIIGTLQNSAEFSEAFHCRKNSYMNPEKKCRVW
Question: Which results are given for B1?
Answer: effect of enkephalinase on SP-stimulated DNA synthesis ([5]; 1 μg/ml enkephalinase added at the same time as SP (FIG. 3)): destroyed all activity of SP by itself; effect of enkephalinase on insulin-stimulated DNA synthesis ([5]; 1 μg/ml enkephalinase, insulin alone (FIG. 3)): did not affect the activity of insulin alone; effect of enkephalinase pretreatment on the SP effect ([5]; cells pretreated 1 to 3 hours, enkephalinase then removed, especially in the presence of insulin): enhancement of the SP effect; harmful effects on epithelial cells ([5]; enkephalinase by itself): no harmful effects; healing rate (wound area with time) ([6]; after the first 80 to 90 hours (FIG. 5)): slow dramatically; re-epithelialization compared to fellow eye treated with vehicle ([6]; enkephalinase 4× daily to one eye, 12 rabbits (FIG. 4)): markedly impair re-epithelialization; adherence of regenerated corneal epithelium [3]: poorly adhered
